From the DeepSol protein solubility set

Experiment: soluble on expression in E. coli; label from the status in PepcDB or PDB records

Sequence	soluble on expression in E. coli
MGSDKIHHHHHHMIVKEINPHFEDYVFNWEQTYQFLVGGYGSSKSYHTALKIVLKLLKEKRTALVIREVFDTHRDSTFALFQEVIEELGLTKAVASLSSPLQLRFHNGSRIMFKGMDNPAKLKSVHNISLIWIEECSEVKYEGFKELIGRLRHPELKLHMICTTNPVGTSNWTYRHFFRDERKKRFVLDDSELYEKRTIVKGDTYYHHSTANDNLFLPESYVKQLDGLKEYDPDLYRIARKGRFGVNGIRVLPQFEVLPHDQVKKCIAAISKPIFRTGMDFGFEESYNAVVRLAVDPEKKYLYIYWEYYQNKMTDDRTAEELREFIETQELIKADSAEPKSIQYFRQQGFRMVGARKFPGSRLQYTKKVKRFKKIFCSDRCENVIYELETLTYAKDKNGALIEDEFTIDPHTLSAIWYALDDYEVADMKETAHKRMRPNRERRRS	not soluble
MGSDKIHHHHHHMIYIGLPQWSHPKWVRLGITSLEEYARHFNCVEGNTTLYALPKPEIVARWYEQTHDDFRFCFKFPATISHQAALRHCDELSSEFFARLAPLASRIGQYWLQLPATFGPRDLPALWHFLDGLPKDFTYGVEVRHPEFFAKEEAEQQLNRGLHERNVNRVILDSRPVHSAAATSPAMIDAQQKKPKVPVHAVMTARQPMVRFIGGDDMAHNRELFRVWLQTLAKWHQSGTPWLFLHTPDIAFAPALVDTLWGDLRAALPAAGNAPSIPQQSSLF	not soluble
MGSDKIHHHHHHMKADFDVLIIGAGLSGIGMACHLAEACPDKRVGILERRSAIGGTWDLFRYPGIRSDSDMFSFGYKFRPWHELKVLADGPAIRRYIADTAREYGVDKSIRFGLKVLRASWSSEDRSWTVTVQQEDSHETHSLTCKFLISCTGYYNYDHGYRPDFTGLERFQGICVHPQHWPQDLDYHGKRVIVIGSGATAVTLVPSMAGKASHVTMLQRSPSYVFSVPAYDKISAVLQKMLPASWVFGLARWRNIRLQRFIYRAARRWPQRVRAWLLSHVEQQLGHGADLRHFSPEYNPWDQRLCAVPDGDLFKAIREGKASVVTDQIDTFTETGVRLKSGRRLDADIIVTATGLQLQSLGGMEVQVDGQPRHASSLMTYKSVLMQDVPNMAHLFGYTNAPWTLKVDLAASYICRLLDHMDRHEYEVVTPGAPAGEMLDETVMDSLQSGYVQRGRNVLPRQGRKLPWRVVHNFEADRDMLTRHPVSDPALAFVRAATTARTGKASELVATRMDGTAV	not soluble
MGSDKIHHHHHHMKALALFSGGLDSMLAMKLITAQGIEVKALNINIGFGSTSDKSEIMKKRAAMVGADFEMIDVRNSYLQEVLFNPQYGYGKHFNPCIDCHAFMFKTALAMLKEENASFIITGEVLGQRPMSQRSDAMAKVKKLALDEEDLILRPMCAKNLPLTKPEREGWVDREKLEGIIGRSRKRQLELAAKFGLEDFESPGGGCLLTLDSFAKKIRDFIEFDKDMQVNDAQLLKYGRHLRLPNGAKMIIGRNELENTLLKGLKTPKYEAIEIGDLIGAYSLVDEKISEKDLELALKIALTYTKHEVGKSYELKFKNQAYTSIAFENKADINQFFIS	not soluble
MGSDKIHHHHHHMKALIEVHNLWKEYNGKEKVTALKGINLRINTGEFVVILGPSGSGKTTLLNCLSGVDRPTRGTVIIHGTDLYTLSEEERTRFRAENMGFVFQFFNLVPVLTAIENVELPLLILGVNRKEARERAFEILRKVGLAHKCDRFPEELSGGEKQRVAIARAIVHNPKVIWADEPTGALDNETGRMIIDLLMEMKENSTLVVVTHDERIAEKADRVIRIRDGQIEQDICEKAL	not soluble
MGSDKIHHHHHHMKDILVHIDDSERCSARLDIAIGLAKTFGARLTGLFARTESHRPSAVAHKASDQLTQARDAAKEAFTKACASAGITSRWWQLAHGEPGHVVSETMFCARYADLVVMGQTEPKSKIVPEEMVEHVILHCGRPVLVVPHTGSFPSVGERMALAWNAGKEAVRALNDAKPLMLKAKSVTVLSLRGPADDGSNAMGEVPQVDVLDHLAACGITASAERLAGEHIGKMDMLLSRLCDLGADLVVMGAHGHYGLSLKRGTGTRYVLAHMTVPVLMSN	not soluble
MGSDKIHHHHHHMKFDYEKEPSRDILCIDCKSFYASVECAERGLDPLKTMLVVMSNAENAGGLVLSASPMAKKVLGVSNVTRKNQVPAHPDLYVVPPRMNLYMKKNQEINNLYKKFVADEDHSVFSVDESFLDVTASLSYFHCETAYKMARIIQRVVYNHVGIYVTVGIGDNPLLAKLALDNGAKHSPDFIAEWRYDRVPDTVWQLPSLTDFCGIGRRMAKRLNRLGIDSVYELAQANPHLLQETFGMMGLQLYAHSWGIDRTFLGKKAPHKAEKSFGNSQILPRDYARRDQIELVLKELTEQVAARLRKAHCQTECITVYVGYSKGQIDREGRTGWRKQQTIPATNNTKVLITYVLALFREHYLAGTDVRQLGLSYGKLVWNESLQLDLFSEPEEQISEMELNYLIDKIRQKFGFQALIHTSSLLEGATAIHRSGLVGGHAGGNVGLGG	not soluble
MGSDKIHHHHHHMKFFNREKEIEEILHIIESEPQRINFIFGSINSGKTALINEIINNRLNKDKYVVFYFDLREIFISKYDDFIEVLFEEYEEPFIDKVKRLFLSLIKDYPDVIKSYALLNITGVVDSIPIPKNTLNELLKKRNVKNVFRYITSVLIKIKREGKQPIIIIDELQKIGDLKLNGFLIYELFNYFVSLTKHKHLCHVFCLSSDSLFIERVYNEAMLEGRCKYILVDDFDRETALKFMDFLAKENNINLTNEDKELIYNYVGGKPIDIIYVINEMKYKKLEDILTSMLKEETQKLKYFLENVKEEDEELYKKVVDALKIFKDSYEIEDIKIPKKLREFLVKKNILFLNPIEGTLKPQSFLVWNAIKRIL	not soluble
MGSDKIHHHHHHMKFPRIGLPKEKVIELINEKTKKDLTFSSGKILGSMCTMPHDLAIEVYTKYIDRNLGDPGLHPGTRKIEEEVIEMISDLLHLEKGHGHIVSGGTEANILAVRAFRNLSDVEKPELILPKSAHFSFIKAGEMLGVKLVWAELNPDYTVDVRDVEAKISDNTIGIVGIAGTTGLGVVDDIPALSDLARDYGIPLHVDAAFGGFVIPFAKELGYELPDFDFKLKGVQSITIDPHKMGMAPIPAGGIVFRRKKYLKAISVLAPYLAGGKVWQATITGTRPGASVIAVWALIKHLGFEGYMRIVERAMKLSRWFAEEIKKINNAWLVREPMLNIVSFQTKNLKKVERELKSRGWGISAHRGYIRIVFMPHVTREMIEEFLKDLKEVLS	not soluble
MGSDKIHHHHHHMKGAVTTDVEAGGLRGRMYASRATSDVRPRADAPTFVLIHGIGVSHRYLVRLHHVLAGVADTISIDLPGFGSTPRPDRQLMVADQAAFIHDVLDQAGVGLRVLVGHSMGAQFVLEAALQRPEQVPHVVLMGPVVDVRRRTLPRQILALTKDALLHETPGSNALVFSDYLRCGPLWYLKELRVMMNYRTEERIRGLTTPVMILRGASDPIATGEWCRILARRAPAGTLVEVPGCGHVVQHTGTAQVADAITGFTGLPGSGAPEQTVNRQ	not soluble
MGSDKIHHHHHHMKGVTLRGLEVFEALSRTGSVAQASTLTGLSQPAVSQQLRNLEQALGTDLVDHGRRPMVLTPAGRAFLPRAETVLSQLRLAQSELTVMDLTHLSTLSMGLIDDFDNDLTPRLATLLADSLTKCRFKLITAPSHEISEAMKARRLHIAVAATSGEVHDGIIEYPLVRDPFILVAPRGVVSKGGDMLASLQGLPLLRYAREQLIGRQIEAHLARQKLDFEERFEIGSHLALMAMVARRLGWAVTTPLGFMRAERFHDEVEAFALPFAAFSRRISLFAGADWADRVPRDVAETMRRLVQSQIIDPAVARLPWLGGELRVIES	not soluble
MGSDKIHHHHHHMKIAFVSTRGIPNNYGGFEQFAEYISVGMAQRGHEVVVYSPKFHPYQESTYKGVRIKHIYSPETWMGSSVGSFFYDFASLRDALKKEDFDIIYEAGYTSIIPAYIWFNVKKRKRPIFTTNMDGLENKRSKFSPMVRRFLDWEEKMAVKYSHYLIADNMGIHDYYKEKYGKESKFLAYGADIHDDFKAEYLEEFGLKSEEYYILIARLEPENNIVMAIEGYLHSKENGRRPLIVVGKTNTPHGKELVEKYGNERNVEFVGGIYDFKKLDSVRHFSKAYFHGHSVGGTNPSLLEAMAAGCFIFAHDNIFNRAVLKENAFYYPSADKVTEYLNRIDTIAEGSKIQYTARNIEVIRNEYSWESLIDKHEKYFYWLLSQKQ	not soluble
MGSDKIHHHHHHMKIAIVGSGNGAVTAAVDMVDKGHDVRLYCRNESISKFDVALEKGGFDFYNEGEEKFIEFTDISDDMEYVLDGADIVQVIIPSSFIEYYAKVMSKFVTNDHLIFFNIAASMGSIRFMNVLEDRHIDVHPHFAEANTLTYGTRVDFNNAKVDLSLNVRRVFFSTFDRSELNESYEKVSKIYDYLVKEESLLKTNLENGNPEVHPGPTLLNVGRIDYSEEFSLYKEGITKHTVRLLHAIEIERLNLGRKLGFELSTAKESRIQRGYLERKDEDEPLNRLFNTSPVFSQIPGPNHVENRYLTEDIAYGLVLWSSLGRVIDVPTPNIDAVIMIASTILERDFFEEGLTIEELGLDKLGLE	not soluble
MGSDKIHHHHHHMKIGIITICKVNNYGAELQAFATQKKLEQMGHNAEIINYLYYKDWHFKDTPLSQPFVPLDMKGKLSYWIKYRLMSWVVNKVLPIFNGNMRRRLHNYQSFIDSERFSAQYKSMDELYKTYPKYDIYMVGSDQVWNPSASSSIEPYFLTFAPKNAPKVTYASSFGVASIAPNLSKRYAKLLNNLDTIAVREQSGVELVKQLTGREAKLVVDPTLLLSKADWEPYMKPLAKISTQYILIYQLFPSQTVIDVALKIGKEKNLPVYNICKRAYGMKKIVGINNILDAGPSEFLWLIANATCMVTNSFHGTAFSVNFATPFCCVLNRKRKNNGRMISFLDKVDMSNRILYEDSIAELNVMTACSEVTNNHLRLLVNNSIDYLKSIIENKEQKC	not soluble
MGSDKIHHHHHHMKIGILTFANVPNFGANLQALSTISYLQNHGYNPILIKWEPEDFEARFTSIKTQKQPQEHFHFVEKYLPQTKICRNDDDICQVIKDEKIEGIIIGSDAVLQCSSFWGRLDFPTKTVVRVNKTTSEREYPNAFWGTFYDKLGSKIPMVIMSASSQNAKYRLIARSVKHKMSNNLSHFEYISVRDIWTRDMITYITKGAIIPNITPDPVFAFNYNCAKFIPSKEDILLKYHLPENYVLVSMKCRMLDNMLWMDKLKSEMKKLYLECVALPMPTGIEFKHNFDFSITTPLPPLDWYALIKYAKGYIGENMHPIVVALHNAVPCFCFDTYGVLKYARCVCVEESSKIYDIMSRFSLLDNRINAYSRFWKCPPVDIVINRILHFDVIACQKTALNYYNNYEQMMSSILEVFKSK	not soluble
MGSDKIHHHHHHMKIKHIFTDMDGTLLDSHGSVSDTNHWSIYYSDLPITLVSARSPLEMSNIVEKLQLRTPQIAFNGNLTFTQNQFGLQIIDKNPLASETVSQLLNYISTEFPNVSLNWYSLAHWYINKQDKGTFIQKAITGIEPKIKTFDGQSEIYKIMMIVFDSQELLQLQAQLNNLNIPNISVQQSGQWYLEITSDNKTKADAVQSILDNKNLDFQEIAAIGDGHNDIPLLQSAGLAIAVDNANSEVKKHVKMVVAKNTEHGVAEAISAINTINEQVI	not soluble
MGSDKIHHHHHHMKILHLGKFYPLKGGMEKAILDIVRGISMQGVTCDLLCVSTEKAGVFPLNEHAHIYAMPSVCNVNSVRISPLLIPTLRKLCPNYDIIHIHCPNPMANLALYLSGYRGKVVLHWHSDILKQKYALKLYKPLQTWLIRRADVIIGTSPVYLENSPFLRGMEHKFRIVPLGCEAIVPSADRVSDIRKQYKGKRIIFALGRLIAYKGFRFLIEAARYLDDGYVVLIGGTGPLYNKLLKQINEENLQGKVCLLGYVTDDEVAQYYGACDVFCLSSVWKTEAFGLVQIEAMSCGKPVVATNIEGSGVPWVNRNGYSGLNVEPENPEALAKAIMKITSSEEAYRTYSRQARAHYNKMFVKERMLAGYEQVYASLYHEK	not soluble
